According to patent publication US20140298544A1, “Engineered PEP carboxylase variants for improved plant productivity” (PIONEER HI BRED INTERNATIONAL INC, priority 2011, published 2014):
Changes are numbered by the printed parent chain. Like-named read-outs stand apart in the source and are kept apart here.

System: maize C4 PEPC
Assay: Kinetic and regulatory properties of PEPC variants (expressed in E. coli)
Type: biochemical
Settings: for PEP, no activators kcat/S0.5 / PEP, no activators kcat/S0.5 % wt / PEP, with activators kcat/S0.5 / kcat/S0.5 Fold incr. / PEP, with activators kcat/S0.5 % wt: PEP substrate; for PEP, no activators kcat/S0.5 % wt / PEP, with activators kcat/S0.5 % wt / Glc-6-P A0.5 % wt / Glycine A0.5 % wt / HCO3 kcat/S0.5 % wt / Malate Ki % wt / Ki for malate, in words / Vmax, in words / activation by glucose-6-phosphate, in words / activation by glycine, in words: relative to wild type; for kcat/S0.5 Fold incr.: with activators vs no activators; for HCO3 S0.5 / HCO3 kcat/S0.5 / HCO3 kcat/S0.5 % wt: bicarbonate substrate; for Ki / Malate Ki % wt: inhibitor malate
From the text: Libraries of modified PEPC polynucleotides were generated using recursive sequence recombination methods (Stemmer, Proc. Natl. Acad. Sci USA 91:10747-10751; Ness, et. al., Nature Biotechnology 20:1251-1255), also known as gene shuffling methods. These libraries incorporated diversity from related PEPC enzymes and also incorporated other designed and random changes. The starting polynucleotide sequence in which the diversity was incorporated was the maize C4 PEPC as shown in SEQ ID NO: 25. Each PEPC variant was expressed in E. coli as a thioredoxin fusion using the pET 32 expression vector (Novagen) with the E. coli expression strain Rosetta gami 2 BL21 DE3 pLYS S. Cultures expressing the variants were grown in 96-well culture blocks, lysed, and then PEPC activity and PEPC protein abundance were determined. The variants with high specific activity were subjected to further rounds of shuffling, for a total of 3 rounds. Examples of nucleotide and amino acid sequences of PEPC variants obtained with this method are SEQ ID NO: 4 to 24.
Detailed kinetic studies of PEPC variants were done in accordance with methods known in the art. See, for example, Tovar-Mendez et al. (2000) Plant Physiol. 123: 149-160; Tover-Mendez et al. (1998) Biochem. J. 332: 633-642.
PEPC variants had several improved properties in comparison with wild type PEPC, including greater affinity (lower S0.5 values) with respect to the bicarbonate substrate, greater Kcat/S0.5 values with the bicarbonate or PEP substrates, greater activation (lower A0.5 values) with […] or glycine as activators and greater Ki values with malate as inhibitor.

[1] = activator Glc-6-P, read-out: Glc-6-P A0.5
[2] = activator glycine, read-out: Glycine A0.5

B1: 3F30-F12: maize C4 PEPC variant, 7 amino acid substitutions, SEQ ID NO: 11 (protein)
chain: MASTKAPGPGEKHHSIDAQLRQLVPGKVSEDDKLIEYDALLVDRFLNILQDLHGPSLREFVQECYEVSADYEGKGDTTKLGELGAKLTGLAPADAILVASSILHMLNLANLAEEAQIAHRRRNSKLKKGGFADEGSATTESDIEETLKRLVSEVGKSPEEVFEALKNQTVDLVFTAHPTQSARRSLLQKNAGIRNCLTQLNAKDITDGDKQELDEALQREIQAAFRTDEIRRAQPTPQDEMRYGMSYIHETVWKGVPKFLRRVDTALKNIGINERLPYNVSLIRFSSWMGGDRDGNPRVTPEVTRDVCLLARMMAANLYIDQIEELMFELSMWRCNDELRVRAEELHSSSGSKVTKYYIEFWKQIPPNEPYRVILGHVRDKLYNTRERARHLLASGVSEISAESSFTSIEEFLEPLELCYKSLCDCGDKAIADGSLLDLLRQVFTFGLSLVKLDIRQESERHTDVIDAITTHLGIGSYREWSEDKRQEWLLSELRGKRPLLPPDLPQTDEIADVIGAFHVLAELPPDSFGPYIISMATAPSDVLAVELLQRECGIKQPLPVVPLFERLADLQSAPASVERLFSVDWYMDRIKGKQQVMVGYSDSGKDAGRLSAAWQLYKAQEEMAQVAKRYGVKLTLFHGRGGTVGRGGGPTHLAILSQPPDTINGSIRVTVQGEVIEFCFGEEHLCFQTLQRFTAATLEHGMHPPVSPKPEWRKLMDEMAVVATEEYRSVVVKEPRFVEYFRSATPETEYGRMNIGSRPAKRRPGGGITTLRAIPWIFSWTQTRFHLPVWLGVGAAFKFAIDKDVRNFQVLKEMYNEWPFFRVTLDLLEMIFAKGDPGIAGLYDELLVAEELKPFGKQLRDKYVETQQLLLQIAGHKDILEGDPFLKQGLVLRNPYITTLNVFQAYTLKRIRDPNFKVTPQPPLSKEFADENKPAGLVKLNPASEYPPGLEDTLILTMKGIAAGMQNTG
modifications: shuffled variant
B1 was tested, and the “PEP, no activators kcat/S0.5” value was 89800 M⁻¹ s⁻¹, the “PEP, no activators kcat/S0.5 % wt” value was 263 % wt and the “PEP, with activators kcat/S0.5” value was 4.496e+06 M⁻¹ s⁻¹. The “kcat/S0.5 Fold incr.” value was 50.1 Fold incr, the “PEP, with activators kcat/S0.5 % wt” value was 184 % wt and the “Glc-6-P Vmax Fold incr” value (activator Glc-6-P) was 12.6 Fold incr. For the same molecule, the EC50 [1] was 5.11 mM, the “Glc-6-P A0.5 % wt” value (activator Glc-6-P) was 75 % wt and the “Glycine Vmax Fold incr” value (activator glycine) was 11.3 Fold incr. For the same molecule, the EC50 [2] was 0.7 mM, the “Glycine A0.5 % wt” value (activator glycine) was 19 % wt and the “HCO3 S0.5” value was 0.0248 mM. For the same molecule, the “HCO3 kcat/S0.5” value was 3.481e+06 M⁻¹ s⁻¹, the “HCO3 kcat/S0.5 % wt” value was 164 % wt and the Ki was 3.3 mM. For the same molecule, the “Malate Ki % wt” value was 825 % wt, the “Ki for malate, in words” value was “increased Ki” and the “Vmax, in words” value was “better Vmax”. The “activation by glucose-6-phosphate, in words” value was “increased activation” and the “activation by glycine, in words” value was “increased activation”.

B2: 3C2-H4: maize C4 PEPC variant, 6 amino acid substitutions, SEQ ID NO: 12 (protein)
chain: B1 chain with A115V, H119R, G208D, S404A, R495K, I555V, K556R, R807K, I832V
modifications: shuffled variant
In the case of B2, the “PEP, no activators kcat/S0.5” value is reported as 64100 M⁻¹ s⁻¹, the “PEP, no activators kcat/S0.5 % wt” value is reported as 188 % wt and the “PEP, with activators kcat/S0.5” value is reported as 3.919e+06 M⁻¹ s⁻¹. For the same molecule, the “kcat/S0.5 Fold incr.” value was 61.2 Fold incr, the “PEP, with activators kcat/S0.5 % wt” value was 160 % wt and the “Glc-6-P Vmax Fold incr” value (activator Glc-6-P) was 7.6 Fold incr. For the same molecule, the EC50 [1] was 3.02 mM, the “Glc-6-P A0.5 % wt” value (activator Glc-6-P) was 44 % wt and the “Glycine Vmax Fold incr” value (activator glycine) was 10.3 Fold incr. The EC50 [2] was 0.56 mM, the “Glycine A0.5 % wt” value (activator glycine) was 16 % wt and the “HCO3 S0.5” value was 0.026 mM. The “HCO3 kcat/S0.5” value was 3.581e+06 M⁻¹ s⁻¹, the “HCO3 kcat/S0.5 % wt” value was 169 % wt and the Ki was 1 mM. The “Malate Ki % wt” value was 250 % wt, the “Ki for malate, in words” value was “increased Ki” and the “Vmax, in words” value was “better Vmax”. The “activation by glucose-6-phosphate, in words” value was “increased activation” and the “activation by glycine, in words” value was “increased activation”.
